The text below walks through data of PMC2387164, “A GATA4/WT1 cooperation regulates transcription of genes required for mammalian sex determination and differentiation”.

Data set [1] concerns the target WT1(+KTS) overexpressed in HeLa cells (mouse) (UniProt P22561).
For data set [2], the target named is T1, GATA4 (UniProt Q08369 1-441). Nature of the data set: EMSA; EMSA conditions as described previously (ref. 48); buffer, salt, pH and temperature not given. The settings on record: protein: ivt; label: 32P (as probe); 5' overhang 4 nt (GATC) both ends.
T1 sequence (Q08369 whole entry): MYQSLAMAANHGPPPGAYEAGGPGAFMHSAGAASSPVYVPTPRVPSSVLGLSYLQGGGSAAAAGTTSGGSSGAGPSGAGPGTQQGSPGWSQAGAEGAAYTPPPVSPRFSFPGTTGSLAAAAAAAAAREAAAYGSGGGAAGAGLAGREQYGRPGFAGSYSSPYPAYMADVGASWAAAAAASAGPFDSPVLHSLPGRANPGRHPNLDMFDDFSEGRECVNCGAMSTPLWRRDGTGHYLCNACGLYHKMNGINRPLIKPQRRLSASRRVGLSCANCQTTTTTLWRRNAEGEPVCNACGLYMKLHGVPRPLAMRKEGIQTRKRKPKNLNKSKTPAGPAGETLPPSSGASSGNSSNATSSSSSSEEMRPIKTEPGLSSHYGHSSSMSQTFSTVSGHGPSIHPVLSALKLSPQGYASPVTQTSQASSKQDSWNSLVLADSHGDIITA
Data set [3] has as its target T1, GATA4. The experiment in a line: competition; competitor of labeled GATA site 1; EMSA conditions as described previously (ref. 48); buffer, salt, pH and temperature not given. The settings on record: protein: ivt; 5' overhang 4 nt (GATC) both ends. Background: In EMSA bound probe runs differently from free probe, usually more slowly.
In another data set the target is WT1(-KTS) (mouse, UniProt P22561-4 1-446). The experiment in a line: EMSA; blocked by 10-fold excess self competitor; EMSA conditions as described previously (ref. 48); buffer, salt, pH and temperature not given. Conditions: protein: ivt; label: 32P (as probe); 5' overhang 4 nt (GGAT on strand 1, GATC on strand 2).
WT1(-KTS), sequence (P22561 other isoform, or with tags, fused parts or gaps): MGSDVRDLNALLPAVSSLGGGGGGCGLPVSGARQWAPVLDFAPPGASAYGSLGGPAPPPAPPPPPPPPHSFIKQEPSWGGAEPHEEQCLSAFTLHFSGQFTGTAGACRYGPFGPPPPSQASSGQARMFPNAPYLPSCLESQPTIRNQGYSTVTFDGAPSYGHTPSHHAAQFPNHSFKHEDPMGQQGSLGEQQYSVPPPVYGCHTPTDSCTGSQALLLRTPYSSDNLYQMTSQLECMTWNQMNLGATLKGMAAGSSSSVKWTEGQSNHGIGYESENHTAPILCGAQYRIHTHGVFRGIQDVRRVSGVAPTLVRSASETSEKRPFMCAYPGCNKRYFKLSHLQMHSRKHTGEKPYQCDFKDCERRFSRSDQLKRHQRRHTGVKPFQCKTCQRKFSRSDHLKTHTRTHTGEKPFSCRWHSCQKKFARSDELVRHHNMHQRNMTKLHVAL
The target in a further data set is WT1(+KTS) (mouse, UniProt P22561 1-449). The description is as above. Conditions: protein: ivt; label: 32P (as probe); 5' overhang 4 nt (GGAT on strand 1, GATC on strand 2).
WT1(+KTS), sequence (P22561 whole entry): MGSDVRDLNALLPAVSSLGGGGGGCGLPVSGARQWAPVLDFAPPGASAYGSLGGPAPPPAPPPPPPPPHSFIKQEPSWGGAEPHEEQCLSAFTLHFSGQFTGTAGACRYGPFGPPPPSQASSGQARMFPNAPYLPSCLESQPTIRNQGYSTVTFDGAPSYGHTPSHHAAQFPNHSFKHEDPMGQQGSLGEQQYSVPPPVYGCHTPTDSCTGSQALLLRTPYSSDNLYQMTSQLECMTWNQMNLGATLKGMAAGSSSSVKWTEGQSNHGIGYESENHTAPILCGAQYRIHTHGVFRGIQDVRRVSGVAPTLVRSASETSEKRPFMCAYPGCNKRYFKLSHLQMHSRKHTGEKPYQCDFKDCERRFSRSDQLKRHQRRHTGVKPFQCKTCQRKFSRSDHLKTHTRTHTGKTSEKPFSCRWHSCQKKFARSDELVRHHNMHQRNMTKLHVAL

WT1(+KTS) overexpressed in HeLa cells (mouse), sequence (P22561 whole entry): as above

In data set [1], “GATA4 overexpressed in HeLa cells (from UniProt P46152 1-440) (natural protein)” showed a luciferase reporter, -1090 bp mouse Sry promoter, co-transfected HeLa cells, fold activation over control of 30 fold and a luciferase reporter, -1400 bp pig SRY promoter, co-transfected HeLa cells, fold activation over control of 50 fold.

B1: pig SRY GATA site 1 (dsDNA)
DNA 1: GATCCGCCTTATTATCATAATAAA
DNA 2: GATCTTTATTATGATAATAAGGCG
Regarding B1, in the data set with GATA4 [2], the binding result is “binds”.

B2: pig SRY GATA site 2 (dsDNA)
DNA 1: GATCCATTGGGTTATCTTGAATCA
DNA 2: GATCTGATTCATGATAACCCAATG
Regarding B2, in the data set with GATA4 [3], the binding result is on record as “binds”.

B3: pig SRY GATA site 3 (dsDNA)
DNA 1: GATCCACATACTGATAATCATCAA
DNA 2: GATCTTGATGATTATCAGTATGTG
For B3, the binding result in the data set with GATA4 [3] is on record as “binds”.

B4: human AMH distal WT1 element (dsDNA)
DNA 1: GGATCACTGGGGAGGGAGATAGGA
DNA 2: GATCTCCTATCTCCCTCCCCAGTG
Regarding B4, the binding result with WT1(-KTS) and with WT1(+KTS) was “binds” in each case.

B5: pig SRY GATA site 4 (dsDNA)
DNA 1: GATCCCCAAGGTTATCTGTTTTTA
DNA 2: GATCTAAAAACAGATAACCTTGGG
Consider B5, for which, in the data set with GATA4 [3], the binding result is given as “binds”.
